Experimental data as given in patent US20240279618A1, “RECEPTOR TYROSINE KINASE AGONIST, COMPOSITION FOR CELL CULTURE MEDIUM, AND […] MAINTENANCE COMPOSITION” (SEKISUI CHEMICAL CO., LTD., priority 2021, published 2024).

How the values were obtained:
[1] = tested on: NIH3T3 (mouse fibroblast cell line); assay: Inhibition of growth factor activity of VHH homodimer by FGFR antagonist; format: cell-based; conditions: 20 nM
Description: The cell growth assay for FGF2 was performed according to the following procedure. On Day 1, a suspension including 2.5×10^4 cells/mL of NIH3T3 in DMEM of 10% CS and PS(+) was created, seeded on a CulturPlate-96 (White Opaque 96-well Microplate, manufactured by Perkin Elmer, Cat #6005680) at 100 μL/well, and cultured in a 5% CO2 incubator at 37° C. for 16 to 24 hours. On Day 2, the medium was replaced with FGF2 (PeproTech Cat #AF-100-18B) or serum-free PS(+) DMEM including various test substances, and the cells were further cultured for 2 days. On Day 4, the 96-well plate was left at room temperature for 30 minutes, and then 100 μL of Cell Titer Glo 2.0 Reagent (manufactured by Promega Corporation) at room temperature was added to each well, followed by stirring at 500 rpm for 2 minutes using a plate mixer. The plate was further left to stand for 8 minutes, and then the luminescence in each well was measured with a Synergy HTX plate reader (manufactured by BioTek) with a sensitivity set (Gain) of 200 and a measurement time of 1 s/well.
The addition amounts of FGF2 and #1L4 (hereinafter also referred to as “#1-L4-#1”), which is a dimer of VHH #1 with a linker […], were each 10 or 100 ng/mL.

[2] = tested on: mouse fibroblast cell line NIH/3T3; assay: Inhibition of growth factor activity of VHH homodimer by FGFR inhibitor (fibroblasts); format: cell-based; conditions: 20 nM
Source text: Promotion of Fibroblast Growth by VHH (Homodimer)” described above.
It was examined whether the cell growth activities of bFGF and the single-domain antibody were inhibited by NPV-BGJ398 which is an FGFR kinase inhibitor.

[3] = target: FGFR (fibroblast growth factor receptor on NIH3T3 mouse fibroblast cells); assay: cell-based or functional assay
[4] = target: FGFR2-Fc (human) (UniProt P21802); assay: SPR (Biacore T200, same manner as Example 5, 1:1 model)
[5] = target: T1, FGFR3-Fc (human, UniProt P22607 23-375); assay: as above
T1 chain: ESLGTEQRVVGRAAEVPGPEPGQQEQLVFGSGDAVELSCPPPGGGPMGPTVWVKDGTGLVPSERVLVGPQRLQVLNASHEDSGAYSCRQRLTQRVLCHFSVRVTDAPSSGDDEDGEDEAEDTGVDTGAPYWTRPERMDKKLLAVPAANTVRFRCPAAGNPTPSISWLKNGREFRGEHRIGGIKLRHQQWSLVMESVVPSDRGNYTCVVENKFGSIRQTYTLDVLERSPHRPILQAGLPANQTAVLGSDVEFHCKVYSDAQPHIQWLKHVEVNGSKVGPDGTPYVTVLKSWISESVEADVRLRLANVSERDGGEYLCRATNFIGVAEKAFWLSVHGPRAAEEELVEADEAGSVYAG

[6] = target: T2, FGFR4-Fc (human, UniProt P22455 22-369, limits assumed); assay: as above
T2 construct: not shown: Fc part
T2 sequence (looked up): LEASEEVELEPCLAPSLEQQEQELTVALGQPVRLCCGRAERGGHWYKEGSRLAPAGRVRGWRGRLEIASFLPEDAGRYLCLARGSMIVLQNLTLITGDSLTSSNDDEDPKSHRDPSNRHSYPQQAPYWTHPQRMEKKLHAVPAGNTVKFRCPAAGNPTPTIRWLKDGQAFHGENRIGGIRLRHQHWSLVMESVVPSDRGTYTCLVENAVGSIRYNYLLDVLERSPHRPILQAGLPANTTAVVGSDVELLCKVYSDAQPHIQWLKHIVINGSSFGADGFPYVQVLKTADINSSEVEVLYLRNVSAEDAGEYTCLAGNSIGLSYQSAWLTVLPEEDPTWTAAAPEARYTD

[7] = target: T3, FGFR1-DII (FGFR1 extracellular domain, DII domain) (human, UniProt P11362 142-250); assay: BLI (Octet 384); VHH Clone #1 immobilised on an Anti-Penta-HIS sensor, FGFR1-DII in solution [A]
T3 construct: domain: DII; Expressed in AAVpro293T cells from a synthesised DNA fragment
T3 sequence (looked up): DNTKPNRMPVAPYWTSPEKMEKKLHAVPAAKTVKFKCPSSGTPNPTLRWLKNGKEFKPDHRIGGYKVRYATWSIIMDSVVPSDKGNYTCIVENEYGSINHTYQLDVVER
Description: (§1) In the preparation for measurement, a tip of the sensor chip was immersed in 200 μL of the kinetics buffer for 10 minutes in order to hydrate the sensor chip. Thereafter, 70 μL of each measurement solution was added to a 384-well black plate (manufactured by Fortebio), and measurement was performed in the following steps 1) to 6). [0291] 1) Baseline step: Baseline measurement (30 seconds) in a kinetics buffer, [0292] 2) Loading step: Immobilization of a VHH antibody on a sensor (120 seconds), [0293] 3) Baseline step: Baseline measurement (30 seconds) in a kinetics buffer, [0294] […] 5) Dissociation step: Measurement in a kinetics buffer (120 seconds), [0296] 6) Regeneration step: Measurement in Glycin-HCl (pH 2.2) for 5 seconds and measurement in a kinetics buffer for 5 seconds are repeated three times.
(§2) After completion of the measurements, the measured value of a Reference (only the kinetics buffer) was subtracted from the actual measurement value, and Global Fitting was performed using a 1:1 binding model using Octet software to calculate the binding activity (FIG. 22).

[8] = target: FGF Receptor 1β (IIIc)/Fc Chimera Human Recombinant Carrier-free (R & D Systems Cat. no. 661-FR) (human) (UniProt P11362); assay: SPR (Biacore T200, CAP chip, biotinylated FGFR1-Fc captured, VHH injected at 1.85-50 nM, single-cycle kinetics, 1:1 model, 25 C)
[9] = target: T4, FGFR1-DIIDIII (FGFR1 extracellular domain, DII and DIII domains) (human, UniProt P11362 142-365); assay: BLI (Octet 384), VHH Clone #1 captured on Anti-Penta-HIS sensor, FGFR1 protein in solution from 100 nM in 2-fold dilutions, global 1:1 fit
T4 construct: domain: DIIDIII; Expressed in AAVpro293T cells from a synthesised DNA fragment
T4 sequence (looked up): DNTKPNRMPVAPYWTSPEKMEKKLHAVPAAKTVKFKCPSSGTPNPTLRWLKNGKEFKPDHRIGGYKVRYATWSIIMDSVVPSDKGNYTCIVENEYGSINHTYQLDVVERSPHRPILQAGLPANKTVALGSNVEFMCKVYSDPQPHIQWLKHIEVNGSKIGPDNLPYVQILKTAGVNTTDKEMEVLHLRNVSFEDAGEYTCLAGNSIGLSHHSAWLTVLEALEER
Description: as §1, §2

[10] = target: T5, FGFR1-DIII (FGFR1 extracellular domain, DIII domain) (human, UniProt P11362 251-365); assay: as above
T5 construct: domain: DIII; Expressed in AAVpro293T cells from a synthesised DNA fragment
T5 sequence (looked up): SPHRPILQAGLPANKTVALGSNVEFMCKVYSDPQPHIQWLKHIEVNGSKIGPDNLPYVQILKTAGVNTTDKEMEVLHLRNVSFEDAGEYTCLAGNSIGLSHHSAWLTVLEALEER
Description: as §1, §2

Molecule: CCN1CCN(c2ccc(Nc3cc(N(C)C(=O)Nc4c(Cl)c(OC)cc(OC)c4Cl)ncn3)cc2)CC1 [NVP-BGJ398]
- effect of NVP-BGJ398 itself on cell growth [1]: little effect on cell growth
- effect of NVP-BGJ398 itself on cell growth [2]: little effect on cell growth

Molecule: basic FGF (PeproTech, AF-100-18B) (from UniProt P09038 135-288) (ligand)
- EC50 of the growth of cultured fibroblasts (NIH/3T3, Cell Titer Glo luminescence) [3]: 5.1 nM

B1: VHH Clone #1 (VHH monomer Clone #1) (VHH)
VHH: QLQLVESGGGSVQAGGSLRLSCAASRSLSRFNVWTWYRQAPVKQRELVASITKSGDTNYAESVKGRFIISRDDDKNTVYLQMNNLKSEDTGIYYCAGSYYSGSYLYPSPGGFSVWGQGTQVTVSS
notes: also called VHH #1; FGFR #1; not shown: C-terminal His tag (purified on Ni Sepharose, captured on Anti-Penta-HIS sensor)
- Kd [4]: 1630 nM
- koff [4]: 0.776 s⁻¹
- kon [4]: 484000 M⁻¹ s⁻¹
- Kd [5]: 1010 nM
- koff [5]: 0.235 s⁻¹
- kon [5]: 232000 M⁻¹ s⁻¹
- Kd [6]: 22.2 nM
- koff [6]: 0.0527 s⁻¹
- kon [6]: 2.37e+06 M⁻¹ s⁻¹
- binding result [7]: no binding
- Kd [8]: 1.74 nM
- Kd [9]: 0.489 nM
- koff [9]: 0.000141 s⁻¹
- kon [9]: 289000 M⁻¹ s⁻¹
- Kd [10]: 1.18 nM
- koff [10]: 0.000351 s⁻¹
- kon [10]: 298000 M⁻¹ s⁻¹

B2: VHH Clone #2 (VHH monomer Clone #2) (VHH, not shown: small tags and cut ends)
VHH: QVQLVESGGGLVQAGGSLRLSCAVPGSIFRFNTMGWYRQPPGKQRELVAQMSRGGITKYGDSVKGRFTITRDNAKNTVHLQMNSLKPEDTAVYYCAGSYYSGSYYYPSPQGFSVWGQGTQVTVSP
- Kd [8]: 1.02 nM
- koff [8]: 0.00114 s⁻¹
- kon [8]: 1.11e+06 M⁻¹ s⁻¹
